{"source": "patent US20130137856A1", "about": "“PROTEIN BINDING DOMAINS STABILIZING FUNCTIONAL CONFORMATIONAL STATES OF GPCRS AND USES THEREOF” (priority 2010, published 2013)", "target": "β2AR truncated after amino acid 365 (β2AR-365) having an amino terminal Flag epitope tag, native, agonist-bound or unliganded (human) (UniProt P07550)", "assay": "cell-based or functional assay", "data": [{"substance": "Gs heterotrimer", "values": [{"measurement": "High affinity state Ki of (-)-isoproterenol, [3H]-DHA competition binding, β2AR in HDL particles + Gs (β2AR alone: 107.5)", "result": 1.07, "unit": "nM"}, {"measurement": "fold increase of the affinity of isoproterenol", "result": 100, "unit": "fold"}]}]}
